In general, Km refers to the concentration of substrate that gives half-maximal velocity. The term kcat denotes the number of substrate molecules converted per active site and unit of time at saturation.

The record followed here is US12258605B2, “Alkane oxidation by modified hydroxylases” (The California Institute of Technology, priority 2005, dated 2025).

Holding throughout (format): biochemical
Series [1] can be described thus: Kinetic constants for n-alkanes: octane. The procedure: Rate measurements. Initial rates of product formation were determined at 25° C. in 100 mM KPi pH 8.0 buffer using purified protein (100 nM) and a substrate concentration of 1.6 mM. In a 5 mL-vial, 20 μL of alkane solution (in ethanol) were dissolved in 400 μL KPi buffer, to which 500 μL enzyme solution at 100-200 nM was added. Reaction was initiated by adding 100 μL of 5 mM NADPH solution, followed by stirring at 300 rpm for 1 minute, and quenched by adding 200 μL chloroform and stirring at 800 rpm for 10 sec. Solutions were transferred to an Eppendorf tube, to which internal standard (10 μL 25 mM 1-bromohexane in ethanol) was added. Tubes were vortexed for 10 sec and centrifuged for 30 sec at 10,000 g. Organic phase was removed and analyzed by GC. For propane, reactions were carried out in a 5 mL-scale using 100-400 nM purified enzyme, propane-saturated buffer (propane concentration≈1.6 mM) and a final NADPH concentration of 500 μM. Reactions were stopped by addition of 200 μL H2SO4 conc. and analyzed by derivatization to alkyl nitrites followed by GC-ECD analysis as described below.
(§1) Products from alkane reactions were identified and quantified by gas chromatography using authentic standards and calibration curves with internal standards. For the reactions with alkanes from pentane to decane, GC analyses were carried out using a Shimadzu GC-17A gas chromatograph, Agilent HP5 column (30 m×0.32 mm×0.1 μm film), 1 μL injection, FID detector, and the following separation program: 250° C. inlet, 250° C. detector, 50° C. oven for 3 min, 5° C./min gradient to 100° C., 25° C./min gradient to 230° C., and 230° C. for 3 min. For butane and propane (TTN) reactions, GC analyses were carried out using a Hewlett-Packard 5890 Series II Plus gas chromatograph, Supelco SPB-1 column (60 m×0.52 mm×0.5 μm film), 0.5 μL injection, FID detector, and the following separation program: 250° C. inlet, 275° C. detector, 80° C. oven for 2 min, 10° C./min gradient to 110° C., 25° C./min gradient to 275° C., and 275° C. for 2.5 min. For ethane and propane (rate) reactions, analysis of reaction mixtures was carried out by derivatization to alkyl nitrites followed by GC-ECD analysis. For laurate, reaction product analysis was carried out by derivatization with N-methyl-N-trimethylsilylheptafluorobutyramide followed by extraction with hexane. Organic solutions were analyzed by FID-GC.
To further investigate the evolution of substrate specificity, kinetic constants for the C5 to C8 alkanes were determined from Michaelis-Menten plots (Table 19). The preference of 35E11 and its evolutionary predecessors for medium-chain alkanes is indicated by their high C8/C5 specificities ((kcat/Km)8/(kcat/Km)5˜100), where Km appears to be the major contributing factor. C8/C5 specificity decreases to ˜5 in the immediate precursors of P450PMO and then switches altogether to the smaller alkane, becoming 0.4 in P450PMO. In P450PMO, catalytic efficiency is highest on propane and decreases along the alkane series, driven by decreasing kcat.

Series [2] can be described thus: Reactions on alkanes, total turnovers (Table 18): ethane. Conditions: ethane (2 C atoms). The procedure: (§2) Reactions on alkanes. Reactions with alkanes from pentane to decane were carried out at 3 mL-scale using 100 mM KPi pH 8.0 buffer containing 2% ethanol (to allow alkane solubilization) and purified protein. 2.5 mL KPi buffer were added with 60 μL of 90 mM alkane solution in ethanol (final conc.=1.8 mM), 150 μL enzyme solution at 1 μM (final conc.=50 nM), and 300 μL NADPH regeneration solution (100 units/mL isocitrate dehydrogenase, 70 mg/mL isocitrate, 1.5 mg/ml NADP^+). Vials were sealed and stirred for 24 hours at 4° C. 1 mL-aliquot of the reaction was removed, added with 10 μl internal standard (25 mM 1-bromohexane in ethanol), and extracted with 200 μl chloroform (30 sec vortexing, 1 min centrifugation at 10000 g). The organic phase was removed and analyzed by gas chromatography. Reactions with ethane, propane, and butane were carried out as described for longer alkanes with the only difference that alkane-saturated KPi buffer was used. Propane reactions with variants from HL5 and L9 libraries were performed on 1 mL-scale reaction using 20 nM enzyme to reduce oxygen limitation. Propane and butane reactions were analyzed by direct injection of reaction solution on the GC using 1-pentanol as internal standard. Ethane reaction products were functionalized (see below) and analyzed by GC using 1-butanol as internal standard. All measurements were performed in triplicate.
as §1
(§3) TTNs for each variant-substrate pair were determined using standardized reaction conditions (identical enzyme and substrate concentration, incubation time, cofactor regeneration system) (Table 18). TTN values were used to assess performance because TTN is a cumulative measure of both catalytic and coupling efficiency and because mutants were selected based on improvement in this property. To facilitate comparison among the variants, TTNs were normalized to the highest value in the series (MTN=Maximal Turnover Number) and plotted for the increasing-sized substrates (FIG. 38). A gradual shift of the enzyme's substrate preference during laboratory evolution is evident from these profiles. The marginal activity of wild-type BM3 on these substrates (MTN=150) is restricted to the long-chain alkanes, where it is a promiscuous function of BM3's high C12-C20 fatty acid hydroxylase activity. In the first evolutionary intermediates, substrate preference centers on medium-chain alkanes […], reflecting their selection for activity on octane. In 35E11, selected for activity on propane, preference still centers on C6-C8 alkanes but now extends towards the shorter ones, including propane. Propane activity becomes prevalent with the transition from variant ETS8 to 19A12. […]

Series [3] can be described thus: Reactions on alkanes, total turnovers (Table 18): pentane. Conditions: pentane (5 C atoms). As to the method:
as §2, §1, §3

Series [4] in a line: Reactions on alkanes, total turnovers (Table 18): hexane. To be noted: hexane (6 C atoms). The procedure: as §2, §1, §3
Series [5] can be described thus: Reactions on alkanes, total turnovers (Table 18): octane. Conditions: octane (8 C atoms). As to the method: as §2, §1, §3
A short description of series [6]: Reactions on alkanes, total turnovers (Table 18): nonane. To be noted: nonane (9 C atoms). As to the method:
as §2, §1, §3

Series [7] in a line: Reactions on alkanes, total turnovers (Table 18): decane. To be noted: decane (10 C atoms). The procedure: as §2, §1, §3
[8] abbreviates: TTN normalized to the highest value of the variant's series.
Setting [9] is: total turnovers, standardized reaction conditions.

B1: P450PMO: P450 BM-3 variant, SEQ ID NO:125; 7-7 plus G443A and D698G; propane monooxygenase (protein)
chain: TIKEMPQPKTFGELKNLPLLNTDKPVQALMKIADELGEIFKFEAPGCVTRYISSQRLIKEACDESRFDKNLSQELKFFRDFGGDGLFTSWTHEINWKKAHNILLPSFSQQAMKGYHAMMVDIAVQLVQKWERLNADEHIEVSEDMTRLTLDTIGLCGFNYRFNSFYRDQPHPFIISMVRALDEVMNKPQRANPDDPAYDENKRQCQEDIKVMNDLVDKIIADRKARGEQSDDLLTQMLNGKDPETGEPLDDGNISYQIITFLIAGHETTSGLLSFALYFLVKNPHVLQKVVEEAARVLVDPVPSYKQVKQLKYVGMVLNEALRLWPTFPAFSLYAKEDTVLGGEYPLEKGDEVMVLIPQLHRDKTVWGDDVEEFRPERFENPSAIPQHAFKPFGNGQRACIGQQFALHEATLVLGMMLKHFDFEDHTNYELDIKETLTLKPEAFVVKAKSKKIPLGGIPSPSTGQSAKKVRKKAENAHNTPLLVLYGSNMGTAEGTARDLADIAMSKGFAPQVATLDSHAGNLPREGAVLIVTASYNGHPPDNAKQFVDWLDQASADEVKGVRYSVFGCGDKNWATTYQKVPAFIDETLAAKGAENIADRGEADASDDFEGTYEEWREHMWSDVAAYFNLDIENSEDNKSTLSLQFVDSAADMPLAKMHGAFSTNVVASKELQQPGSARSTRHLEIELPKEASYQEGGHLGVIPRNYEGTVNRVTARFGLDASQQIRLEAEEEKLAHLPLAKTVSVEELLQYVELQDPVTRTQLRAMAAKTVCPPHKVELEALLEKQAYKEQVLAKRLTMLELLEKYPACEMKFSEFIALLPSIRPRYYSISSSPRVDEKQASITVSVVSGEAWSGYGEYKGIASNYLAELQEGDTITCFISTPQSEFTLPKDPETPLIMVGPGTGVAPFRGFVQARKQLKEQGQSLGEAHLYFGCRSPHEDYLYQEELENAQSEGIITLHTAFSRMPNQPKTYVQHVMEQDGKKLIELLDQGAHFYICGDGSQMAPAVEATLMKSYADVHQVSEADARLWLQQLEEKGRYAKDVWAG
modifications: Mutant P450PMO protein sequence
notes: 7-7 plus G443A and D698G; propane monooxygenase
In the case of B1, the Km in series [1] came out at 185 ± 40 µM. Besides, the kcat in series [1] worked out at 13 ± 4 min⁻¹. Moreover, the “% rel. act.” value was 12.4% in series [2] (setting [8]); 4.9% in series [3] (setting [8]); 12.7% in series [4] (setting [8]); 9.2% in series [5] (setting [8]); 11.7% in series [6] (setting [8]); 5.3% in series [7] (setting [8]). In addition, the TTN came to 2550 ± 250 in series [2] (setting [9]); 1000 ± 110 in series [3] (setting [9]); 2600 ± 205 in series [4] (setting [9]); 1880 ± 60 in series [5] (setting [9]); 2390 ± 30 in series [6] (setting [9]); 1080 ± 30 in series [7] (setting [9]).
